In paper PMC12084609, “Structural insights into small-molecule agonist recognition and activation of complement receptor C3aR” (The EMBO Journal, 2025):
Numbering of substitutions follows the chain as printed. Values joined by “and” are separate entries in the source; they are usually repeats but may differ in a detail not shown here. Equal values may be shown once.

Experiments:
Assay type in all cases: cell-based
[1] = biological target: C3aR (Homo sapiens, UniProt Q16581); assay: Gi recruitment BRET assay (C3aR-eYFP / Gαi-Rluc8, HEK293T); conditions: for ΔBRET (ligand-vehicle): individual replicates
Sequence of C3aR (Q16581 whole entry): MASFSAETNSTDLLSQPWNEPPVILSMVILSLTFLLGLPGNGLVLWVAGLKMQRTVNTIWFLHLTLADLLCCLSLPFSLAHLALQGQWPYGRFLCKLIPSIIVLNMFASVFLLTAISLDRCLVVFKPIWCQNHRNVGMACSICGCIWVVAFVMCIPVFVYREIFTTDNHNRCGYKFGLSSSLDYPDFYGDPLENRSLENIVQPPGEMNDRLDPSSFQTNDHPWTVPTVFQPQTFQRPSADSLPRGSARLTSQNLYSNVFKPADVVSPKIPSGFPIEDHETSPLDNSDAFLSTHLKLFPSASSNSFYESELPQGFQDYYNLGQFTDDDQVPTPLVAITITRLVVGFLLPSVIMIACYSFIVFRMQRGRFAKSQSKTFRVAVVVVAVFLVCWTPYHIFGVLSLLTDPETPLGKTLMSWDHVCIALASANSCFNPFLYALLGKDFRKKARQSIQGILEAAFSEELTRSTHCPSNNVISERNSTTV
Sequence of C3aR (P63096 2-354 partner limits assumed): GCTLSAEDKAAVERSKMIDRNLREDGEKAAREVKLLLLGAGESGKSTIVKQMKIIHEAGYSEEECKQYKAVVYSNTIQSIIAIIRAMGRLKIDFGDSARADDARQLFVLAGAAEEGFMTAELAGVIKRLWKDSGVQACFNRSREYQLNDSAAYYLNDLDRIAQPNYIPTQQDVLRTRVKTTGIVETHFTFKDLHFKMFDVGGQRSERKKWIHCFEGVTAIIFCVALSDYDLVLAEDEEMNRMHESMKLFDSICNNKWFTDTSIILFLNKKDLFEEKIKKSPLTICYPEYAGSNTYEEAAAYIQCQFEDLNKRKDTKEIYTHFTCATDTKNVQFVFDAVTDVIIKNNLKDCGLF
Sequence of C3aR (P62873 2-340 partner limits assumed): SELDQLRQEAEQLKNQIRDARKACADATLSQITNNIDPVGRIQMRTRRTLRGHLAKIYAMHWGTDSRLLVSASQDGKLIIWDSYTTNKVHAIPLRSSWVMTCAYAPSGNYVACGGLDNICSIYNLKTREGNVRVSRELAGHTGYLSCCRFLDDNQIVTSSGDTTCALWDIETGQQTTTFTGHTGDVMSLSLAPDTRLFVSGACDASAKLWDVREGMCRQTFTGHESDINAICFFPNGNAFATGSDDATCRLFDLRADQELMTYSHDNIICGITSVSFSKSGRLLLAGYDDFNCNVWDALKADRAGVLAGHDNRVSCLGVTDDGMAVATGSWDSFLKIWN
Sequence of C3aR (P59768 2-68 partner limits assumed): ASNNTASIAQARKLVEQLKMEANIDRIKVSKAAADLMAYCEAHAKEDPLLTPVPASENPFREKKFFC
Description: HEK293T cells were seeded on 6-well plates (NEST) and transfected with pcDNA3.1 plasmids encoding C3aR-eYFP, Gαi-Rluc8, Gβ1, and Gγ2 with a ratio of 5:1:1:1. After 48 h, cells were harvested and resuspended with in PBS. Cells were treated with test ligand with various concentrations and seeded on 96-well white bottom plates (SPL). After 3 min incubation at 37 °C, coelenterazine h (Nanolight) was added with a final concentration of 10 μM. Luminescence and fluorescence were measured using a Tristar 2 LB 942 multimode reader (Berthold).

[2] = biological target: T1, C3aR P99^3.29A (Homo sapiens, UniProt Q16581, P99A); assay: GloSensor-based cAMP assay, C3aR mutant P99A; conditions: for cAMP response (% Forskolin): P993.29A, single replicates
T1 construct: expressed in transfected cells; host or cells: HEK293T
T1 sequence (Q16581 1-482 P99A): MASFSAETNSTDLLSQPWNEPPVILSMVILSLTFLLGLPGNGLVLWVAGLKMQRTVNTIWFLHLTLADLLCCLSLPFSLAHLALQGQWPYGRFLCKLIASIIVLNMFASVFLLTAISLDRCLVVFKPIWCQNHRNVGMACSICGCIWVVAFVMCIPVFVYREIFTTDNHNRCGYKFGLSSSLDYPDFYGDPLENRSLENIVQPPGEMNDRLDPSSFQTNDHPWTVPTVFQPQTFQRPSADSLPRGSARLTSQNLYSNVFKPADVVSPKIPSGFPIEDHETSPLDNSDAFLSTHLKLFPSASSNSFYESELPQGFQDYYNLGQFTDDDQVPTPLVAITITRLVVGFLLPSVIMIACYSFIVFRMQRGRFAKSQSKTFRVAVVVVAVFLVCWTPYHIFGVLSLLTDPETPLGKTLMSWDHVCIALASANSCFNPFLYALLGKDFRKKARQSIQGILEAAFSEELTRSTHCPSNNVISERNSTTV
Description: (§1) HEK293T cells were seeded on 6-well plates (NEST) and transfected with pGlosensor™-22F plasmids (Promega) and pcDNA3.1 plasmids encoding C3aR or its mutants an with N-terminal FLAG tag. After 48 h, cells were detached with Accutase solution (Sigma-Aldrich) and washed with PBS, and resuspended in assay buffer (CO2-independent medium with 0.5 mg mL^−1D-luciferin). 100,000–200,000 cells were seeded on 96-well white bottom plates (SPL) and incubated at 37 °C for 45 min followed by 45 min incubation at room temperature. After 90 min of incubation, basal luminescence signals were recorded. In total, 25 μl of test ligand with various concentrations and 1 μM Forskolin (Sigma-Aldrich) were treated to the cells and luminescence signals were measured by Tristar 2 LB 942 multimode reader (Berthold). […] Relative luminescence unit (%) was calculated with the signal of wells treated with vehicle as 0% and the signal of wells treated with 1 μM Forskolin as 100% (DiRaddo et al, [2014]). Nonlinear regression was performed using a three-parameter logistic equation.

[3] = biological target: T2, C3aR M106^3.36A (Homo sapiens, UniProt Q16581, M106A); assay: GloSensor-based cAMP assay, C3aR mutant M106A; conditions: for cAMP response (% Forskolin): single replicates
T2 construct: expressed in transfected cells; host or cells: HEK293T
T2 sequence (Q16581 1-482 M106A): T1 sequence (Q16581 1-482 P99A) with A99P, M106A
Description: as §1

[4] = biological target: T3, C3aR I421^7.39A (Homo sapiens, UniProt Q16581, I421A); assay: GloSensor-based cAMP assay, C3aR mutant I421A; conditions: for cAMP response (% Forskolin): I4217.39A, single replicates
T3 construct: expressed in transfected cells; host or cells: HEK293T
T3 sequence (Q16581 1-482 I421A): T1 sequence (Q16581 1-482 P99A) with A99P, I421A
Description: as §1

[5] = Dunnett's multiple comparisons test, WT minus mutant

## C3a: anaphylatoxin C3a, natural peptide ligand of C3aR (a 77-amino acid peptide), Sigma-Aldrich
[1]; Figure EV1A numerical data, curve fit
  pEC50 Value: 8.52
[1]; Log[ligand (M)] -7
  ΔBRET (ligand-vehicle): 0.032 and 0.030 and 0.024 and 0.026
[1]; Log[ligand (M)] -8
  ΔBRET (ligand-vehicle): 0.029 and 0.025 and 0.020 and 0.022
[1]; Log[ligand (M)] -9
  ΔBRET (ligand-vehicle): 0.010 and 0.009 and 0.006 and 0.007
[1]; Log[ligand (M)] -10
  ΔBRET (ligand-vehicle): 0.00235 and 0.00134 and 0.00248 and 0.003
[1]; Log[ligand (M)] -11
  ΔBRET (ligand-vehicle): 0.000317 and 0.00116 and 0.00278 and 0.00544
[1]; Log[ligand (M)] -12
  ΔBRET (ligand-vehicle): 0.000368 and 0.000727 and 0.00354 and 0.006
[1]; span of ΔBRET curve, Figure EV1A numerical data
  Span Value: 0.027
[2]; [5]
  Mean Diff. of pIC50, WT vs. P99A: 0.364
[2]; P99^3.29A relative to WT C3aR
  ΔpIC50 ± SE of Diff.: -0.36 ± 0.06
[2]; P99^3.29A, dose-response plot, read-out: IC50
  IC50: 6.44 nM
[2]; P99^3.29A, individual replicates
  pIC50 (Replicate): 8.35 and 8.23 and 8.15
[2]; P99^3.29A, mean of independent experiments
  pIC50 ± SEM (Mean): 8.18
[2]; Log[C3a (M)] -7
  cAMP response (% Forskolin): 12.82 % Forskolin and 13.55 % Forskolin and 15.36 % Forskolin and 12.84 % Forskolin
[2]; Log[C3a (M)] -8
  cAMP response (% Forskolin): 28.00 % Forskolin and 35.91 % Forskolin and 53.45 % Forskolin and 42.74 % Forskolin
[2]; Log[C3a (M)] -9
  cAMP response (% Forskolin): 95.96 % Forskolin and 92.86 % Forskolin and 104.37 % Forskolin and 97.87 % Forskolin
[2]; Log[C3a (M)] -10
  cAMP response (% Forskolin): 102.35 % Forskolin and 93.68 % Forskolin and 104.69 % Forskolin and 98.88 % Forskolin
[2]; Log[C3a (M)] -11
  cAMP response (% Forskolin): 98.97 % Forskolin and 94.82 % Forskolin and 109.09 % Forskolin and 99.84 % Forskolin
[2]; Log[C3a (M)] -12
  cAMP response (% Forskolin): 103.44 % Forskolin and 97.11 % Forskolin and 100.69 % Forskolin and 103.75 % Forskolin
[3]; [5]
  Mean Diff. of pIC50, WT vs. M106A: 0.034
[3]; M106A, Log[C3a (M)] -7
  cAMP response (% Forskolin): 8.75 % Forskolin and 12.90 % Forskolin and 9.09 % Forskolin
[3]; M106A, Log[C3a (M)] -8
  cAMP response (% Forskolin): 9.11 % Forskolin and 12.58 % Forskolin and 9.15 % Forskolin
[3]; M106A, Log[C3a (M)] -9
  cAMP response (% Forskolin): 42.52 % Forskolin and 48.08 % Forskolin and 24.26 % Forskolin
[3]; M106A, Log[C3a (M)] -10
  cAMP response (% Forskolin): 70.86 % Forskolin and 84.09 % Forskolin and 59.73 % Forskolin
[3]; M106A, Log[C3a (M)] -11
  cAMP response (% Forskolin): 100.00 % Forskolin and 94.62 % Forskolin and 93.38 % Forskolin
[3]; M106A, Log[C3a (M)] -12
  cAMP response (% Forskolin): 103.69 % Forskolin and 97.63 % Forskolin and 101.57 % Forskolin
[3]; M106^3.36A relative to WT C3aR
  ΔpIC50 ± SE of Diff.: -0.03 ± 0.03
[3]; M106^3.36A, individual replicates
  pIC50 (Replicate): 8.59 and 8.68 and 8.47 and 8.31
[3]; M1063.36A, Log[C3a (M)] -7
  cAMP response (% Forskolin): 12.14 % Forskolin and 11.95 % Forskolin and 11.63 % Forskolin and 13.11 % Forskolin
[3]; M1063.36A, Log[C3a (M)] -8
  cAMP response (% Forskolin): 15.30 % Forskolin and 16.36 % Forskolin and 17.61 % Forskolin and 30.65 % Forskolin
[3]; M1063.36A, Log[C3a (M)] -9
  cAMP response (% Forskolin): 79.42 % Forskolin and 72.88 % Forskolin and 85.10 % Forskolin and 95.05 % Forskolin
[3]; M1063.36A, Log[C3a (M)] -10
  cAMP response (% Forskolin): 93.61 % Forskolin and 101.94 % Forskolin and 98.48 % Forskolin and 102.99 % Forskolin
[3]; M1063.36A, Log[C3a (M)] -11
  cAMP response (% Forskolin): 97.40 % Forskolin and 101.43 % Forskolin and 95.22 % Forskolin and 99.89 % Forskolin
[3]; M1063.36A, Log[C3a (M)] -12
  cAMP response (% Forskolin): 100.17 % Forskolin and 94.23 % Forskolin and 92.07 % Forskolin and 95.27 % Forskolin
[4]; [5]
  Mean Diff. of pIC50, WT vs. I421A: -0.119
[4]; I421^7.39A mutant
  reduction in ligand-induced signaling vs WT: minor effect
[4]; I421^7.39A relative to WT C3aR
  ΔpIC50 ± SE of Diff.: 0.12 ± 0.03
[4]; I421^7.39A, dose-response plot, read-out: IC50
  IC50: 2.54 nM
[4]; I421^7.39A, individual replicates
  pIC50 (Replicate): 8.63 and 8.57 and 8.45 and 8.43 and 8.89 and 8.83
[4]; I421^7.39A, mean of independent experiments
  pIC50 ± SEM (Mean): 8.61
[4]; Log[C3a (M)] -7
  cAMP response (% Forskolin): 16.32 % Forskolin and 12.05 % Forskolin and 12.43 % Forskolin and 14.57 % Forskolin and 9.51 % Forskolin and 8.99 % Forskolin and 8.25 % Forskolin
[4]; Log[C3a (M)] -8
  cAMP response (% Forskolin): 20.11 % Forskolin and 16.00 % Forskolin and 16.82 % Forskolin and 18.52 % Forskolin and 13.73 % Forskolin and 11.22 % Forskolin and 10.34 % Forskolin
[4]; Log[C3a (M)] -9
  cAMP response (% Forskolin): 77.07 % Forskolin and 83.92 % Forskolin and 80.09 % Forskolin and 92.33 % Forskolin and 88.01 % Forskolin and 57.33 % Forskolin and 61.66 % Forskolin
[4]; Log[C3a (M)] -10
  cAMP response (% Forskolin): 97.12 % Forskolin and 96.88 % Forskolin and 97.52 % Forskolin and 98.66 % Forskolin and 91.65 % Forskolin and 90.54 % Forskolin and 92.28 % Forskolin
[4]; Log[C3a (M)] -11
  cAMP response (% Forskolin): 100.24 % Forskolin and 95.23 % Forskolin and 97.32 % Forskolin and 97.61 % Forskolin and 88.75 % Forskolin and 89.55 % Forskolin and 96.90 % Forskolin
[4]; Log[C3a (M)] -12
  cAMP response (% Forskolin): 96.20 % Forskolin and 95.22 % Forskolin and 96.06 % Forskolin and 97.86 % Forskolin and 95.09 % Forskolin and 99.13 % Forskolin and 96.01 % Forskolin
